Assay results reported in patent US20090325869A1 (CHILDREN S HOSPITAL AND RESEARCH CENTER OAKLAND, published 2009).

Molecular target: T1, Ferritin H (frog), wild type, protein nanocage (frog, UniProt P07229 2-176)
T1 sequence (looked up): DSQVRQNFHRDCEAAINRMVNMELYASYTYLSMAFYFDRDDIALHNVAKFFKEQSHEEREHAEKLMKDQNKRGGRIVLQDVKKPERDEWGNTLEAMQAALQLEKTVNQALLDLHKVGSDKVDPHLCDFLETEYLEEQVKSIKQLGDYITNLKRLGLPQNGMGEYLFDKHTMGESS
Assay: cell-based or functional assay

HSNTYYFPKGG [Peptide 1, synthetic undecapeptide HSNTYYFPKGG]
rate of ferritin demineralization, fold against wild type ferritin H without peptide: 3.3 fold
